Measured values taken from patent publication WO2008044032A2 (dated 2008).

Biological target: T1, CD20 on the CD20+ human Daudi Burkitt lymphoma cell line (human, UniProt P11836 1-297)
T1 construct: whole, on cells; also called Daudi cells
T1 sequence (looked up): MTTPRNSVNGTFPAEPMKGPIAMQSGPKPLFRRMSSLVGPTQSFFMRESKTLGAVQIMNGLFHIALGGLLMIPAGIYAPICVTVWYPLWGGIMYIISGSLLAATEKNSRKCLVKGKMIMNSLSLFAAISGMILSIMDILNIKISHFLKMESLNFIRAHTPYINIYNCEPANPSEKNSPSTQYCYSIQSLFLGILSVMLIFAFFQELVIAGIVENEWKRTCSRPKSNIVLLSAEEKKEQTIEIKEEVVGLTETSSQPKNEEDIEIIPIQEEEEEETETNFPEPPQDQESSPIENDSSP
Test: FACS binding assay on CD20+ Daudi cells, serial dilutions of antibody

binding result: binds
B1: chimeric anti-CD20 antibody (unmodified chimeric Leu 16) (antibody, human IgG1, V domains shown)
VH: EVQLQQSGAELVKPGASVKMSCKASGYTFTSYNMHWVKQTPGQGLEWIGAIYPGNGDTSYNQKFKGKATLTADKSSSTAYMQLSSLTSEDSADYYCARSNYYGSSYWFFDVWGAGTTVTVSS
VL: DIVLTQSPAILSASPGEKVTMTCRASSSVNYMDWYQKKPGSSPKPWIYATSNLASGVPARFSGSGSGTSYSLTISRVEAEDAATYYCQQWSFNPPTFGGGTKLEIK
notes: Only the variable regions are printed
